Where two headings read alike, the source gives them in different places. Values belong to the compound of their own block, whether it stands above or below them.
Tests used:
[1] = biological target: T1, Cuphea wrightii KAS IIIa (β-ketoacyl ACP synthase IIIa), recombinant wild-type, GenBank U15935 (Cuphea wrightii, UniProt P49244); assay: Inhibition of recombinant wild-type KAS IIIa by acyl ACPs and acyl CoAs ([1-14C] acetate incorporation into acetoacetyl ACP; Lineweaver-Burk); format: biochemical
T1 construct: His6 (N); made in house; host or cells: E. coli BL21(DE3)pLys, pET 15b vector
T1 sequence (P49244 68-400 limits assumed): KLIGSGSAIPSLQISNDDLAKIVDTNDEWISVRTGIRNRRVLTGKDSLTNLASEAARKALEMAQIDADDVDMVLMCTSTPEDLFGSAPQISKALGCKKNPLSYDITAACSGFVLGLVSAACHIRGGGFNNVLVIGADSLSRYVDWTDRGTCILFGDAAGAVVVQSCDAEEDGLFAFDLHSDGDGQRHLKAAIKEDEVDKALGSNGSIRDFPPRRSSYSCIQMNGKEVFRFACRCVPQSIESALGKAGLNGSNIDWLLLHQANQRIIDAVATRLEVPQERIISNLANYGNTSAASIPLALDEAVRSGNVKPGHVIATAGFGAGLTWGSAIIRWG
Description: (§1) Wild-type KAS III and KAS IIIa mutants were expressed with a His6-tag at the N-terminus in E. coli strain BL21(DE3)pLys (Novagen, Madison, USA) and purified by nickel affinity chromatography. Purity of the synthesised KAS IIIs was evaluated by SDS-PAGE. The KAS III concentration was determined by the method of Bradford (M. M. Bradford (1976), Anal. Biochem. 72, p. 248-254).
(§2) The activity of KAS IIIa was analysed by the incorporation of radioactive acetate from [1-^14C] acetyl CoA into acetoacetyl ACP (Brück et al. (1996), Planta 198, p. 271-278). The reaction mix (50 μl) contained 100 mM sodium phosphate, pH 7.6, 10 μM [1-^14C] acetyl CoA, 20 μM malonyl ACP and 2 ng of the recombinant KAS IIIa or the KAS IIIa mutant, respectively. The reaction was initiated by adding the enzyme and was performed for a period of 5 minutes at 30° C.
(§3) In the inhibition studies of the wild-type KAS IIIa the used conditions provided for saturation with respect to the substrates acetyl CoA and […]. As regards the inhibitors non-radioactive acyl ACPs (C2-C16) or acyl CoAs (C3-C12) were added at varying concentrations. The resulting data were analysed by the method of Lineweaver-Burk. The inhibition studies of the KAS IIIa mutants with acyl ACPs were performed with 10 μM non-radioactive dodecanoyl ACP (see FIG. 3).
(§4) The KAS III activity was measured as described above in the presence of varying concentrations of acyl ACP (5-25 μM) or of acyl CoA (10-50 μM).
FIG. 2: Kinetic of the inhibition of wild-type KAS III by dodecanoyl ACP. Double reciprocal plots of the concentration of acetyl CoA (A) and malonyl ACP (B) against the activity of KAS III in the absence (●) and presence of 1 μM (▴), 2.5 μM (▪) and 5 μM (▾) dodecanoyl ACP. The respective substrate partner was maintained at a constant level at 10 μM [1-^14C] acetyl CoA and 20 μM malonyl ACP. The enzyme activity was determined by monitoring the incorporation of [1-^14C] acetate from [1-^14C] acetyl CoA into β-ketobutyryl ACP (n=8).

[2] = biological target: recombinant wild-type Cuphea wrightii β-ketoacyl ACP synthase IIIa (cwKAS IIIa) (Cuphea wrightii); assay: inhibition of KAS IIIa enzyme activity ([1-14C] acetyl CoA incorporation), 5-25 µM acyl ACP, Lineweaver-Burk analysis
[3] = system: Cuphea wrightii KAS IIIa mutant Asn358Asp (N291D in the mature protein); assay: Inhibition of KAS IIIa mutant Asn358Asp by dodecanoyl ACP; format: biochemical
Description: (§5) Then, three point-mutated KAS IIIs were created by the substitution of asparagine^358 by aspartate, alanine^361 by serine and alanine^362 by proline. The amplification of the overlapping DNA fragments of the KAS III mutants was performed by two separate reactions, which each contained 2 ng K3MK-pGEMT plasmid as template, 2.5 U proof-reading Pfu polymerase, 200 μM dNTPs and 50 pmol of each of the primers in a total volume of 50 μl. Each reaction mix contained a flanking primer (Fse5 or Xho3) and the corresponding mutation primer. […]
as §1
(§6) The activity of KAS IIIa was analysed by the incorporation of radioactive acetate from [1-^14C] acetyl CoA into acetoacetyl ACP (Brück et al. (1996), Planta 198, p. 271-278). […]
(§7) In the inhibition studies of the wild-type KAS IIIa the used conditions provided for saturation with respect to the substrates acetyl CoA and malonyl CoA. […] The resulting data were analysed by the method of Lineweaver-Burk. […]

[4] = system: Cuphea wrightii KAS IIIa mutant Ala361Ser (A294S in the mature protein); assay: Inhibition of KAS IIIa mutant Ala361Ser by dodecanoyl ACP; format: biochemical
Description: as §5, §1, §6, §7

[5] = biological target: Cuphea wrightii KAS IIIa mutant Ala^361Ser (Cuphea wrightii); assay: cell-based or functional assay
[6] = biological target: Cuphea wrightii KAS IIIa mutant Asn^358Asp (Cuphea wrightii); assay: cell-based or functional assay
wild-type KAS IIIa = biological target: T2, wild-type KAS IIIa (Cuphea wrightii, UniProt P49244); assay: Inhibition of wild-type KAS IIIa by acyl ACPs and acyl CoAs ([1-14C] acetyl CoA incorporation into acetoacetyl ACP); format: biochemical; conditions: with respect to acetyl CoA or malonyl CoA; Lineweaver-Burk
T2 construct: His6 (N); made in house; host or cells: E. coli BL21(DE3)pLys, vector pET15b
T2 sequence (P49244 68-400 limits assumed): T1 sequence (P49244 68-400 limits assumed)
Description: as §2, §3, §4
FIG. 2: Kinetic of the inhibition of wild-type KAS III by dodecanoyl ACP. […] The enzyme activity was determined by monitoring the incorporation of [1-^14C] acetate from [1-^14C] acetyl CoA into β-ketobutyryl ACP (n=8).

[7] = acyl CoA 10-50 μM, pH 7.6, 30° C., 5 minutes, Lineweaver-Burk, read-out: Ki (acyl CoAs)
[8] = in the presence of a saturation concentration (10 μM) of dodecanoyl ACP

dodecanoyl ACP, sequence (P0A6A8 2-78): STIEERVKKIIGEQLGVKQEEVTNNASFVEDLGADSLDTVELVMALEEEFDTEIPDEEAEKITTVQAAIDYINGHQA
acyl ACP, chain length 8 carbon atoms, sequence (P0A6A8 2-78): as above
acyl ACP, chain length 6 carbon atoms, sequence (P0A6A8 2-78): as above
acyl ACP, chain length 16 carbon atoms, sequence (P0A6A8 2-78): as above
acyl ACP, chain length 10 carbon atoms, sequence (P0A6A8 2-78): as above
acyl ACP, chain length 4 carbon atoms, sequence (P0A6A8 2-78): as above
acyl ACP, chain length 2 carbon atoms, sequence (P0A6A8 2-78): as above
acyl ACP, chain length 14 carbon atoms, sequence (P0A6A8 2-78): as above

Ki [1]: 20.8 ± 0.51 µM
Compound: CCC(=O)SCCNC(=O)CCNC(=O)[C@H](O)C(C)(C)COP(=O)(O)OP(=O)(O)OC[C@H]1O[C@@H](n2cnc3c(N)ncnc32)[C@H](O)[C@@H]1OP(=O)(O)O [acyl CoA C3]

Ki [1]: 91.9 ± 0.9 µM
Compound: CCCC(=O)SCCNC(=O)CCNC(=O)[C@H](O)C(C)(C)COP(=O)(O)OP(=O)(O)OC[C@H]1O[C@@H](n2cnc3c(N)ncnc32)[C@H](O)[C@@H]1OP(=O)(O)O [acyl CoA C4]

Ki [1, 7]: 42.7 ± 0.3 µM
Compound: CCCCCC(=O)SCCNC(=O)CCNC(=O)[C@H](O)C(C)(C)COP(=O)(O)OP(=O)(O)OC[C@H]1O[C@@H](n2cnc3c(N)ncnc32)[C@H](O)[C@@H]1OP(=O)(O)O [acyl CoA C6]

Ki [1, 7]: 24.4 ± 0.6 µM
Compound: CCCCCCCC(=O)SCCNC(=O)CCNC(=O)[C@H](O)C(C)(C)COP(=O)(O)OP(=O)(O)OC[C@H]1O[C@@H](n2cnc3c(N)ncnc32)[C@H](O)[C@@H]1OP(=O)(O)O [acyl CoA C8]

Ki [1, 7]: 12.5 ± 0.6 µM
Compound: CCCCCCCCCC(=O)SCCNC(=O)CCNC(=O)[C@H](O)C(C)(C)COP(=O)(O)OP(=O)(O)OC[C@H]1O[C@@H](n2cnc3c(N)ncnc32)[C@H](O)[C@@H]1OP(=O)(O)O [acyl CoA C10]

Ki [1, 7]: 20 ± 0.7 µM
Compound: CCCCCCCCCCCC(=O)SCCNC(=O)CCNC(=O)[C@H](O)C(C)(C)COP(=O)(O)OP(=O)(O)OC[C@H]1O[C@@H](n2cnc3c(N)ncnc32)[C@H](O)[C@@H]1OP(=O)(O)O [acyl CoA C12]

Compound: acyl ACP, chain length 2 carbon atoms
Ki [2]: 2.16 µM

Compound: acyl ACP, chain length 4 carbon atoms
Ki [2]: 2.9 µM

Compound: acyl ACP, chain length 6 carbon atoms
Ki [2]: 8 µM

Compound: acyl ACP, chain length 8 carbon atoms
Ki [2]: 4.1 µM

Compound: acyl ACP, chain length 10 carbon atoms
Ki [2]: 4.1 µM

Compound: acyl ACP, chain length 14 carbon atoms
Ki [2]: 4 µM

Compound: acyl ACP, chain length 16 carbon atoms
Ki [2]: 1.3 µM

Compound: dodecanoyl ACP [listing 1 of 2 here]
inhibition by acyl ACP (in words) ([3]; 10 μM dodecanoyl ACP): almost not at all inhibited
initial activity maintained [3, 8]: about 85%
inhibition by acyl ACP (in words) ([4]; 10 μM dodecanoyl ACP): almost not at all inhibited
initial activity maintained [4, 8]: about 85%

Compound: dodecanoyl ACP [listing 2 of 2 here]
initial activity maintained in the presence of a saturation concentration (10 µM) of dodecanoyl ACP [5]: 85%
initial activity maintained in the presence of a saturation concentration (10 µM) of dodecanoyl ACP [6]: 85%
Ki [2]: 0.4 µM

Compound: dodecanoyl ACP [acyl ACPs 12]
type of inhibition of KAS IIIa (wild-type KAS IIIa): not competitive

— patent publication US20030145350A1, “Method for increasing the content of fatty acids in plants and micro-organisms” (priority 2000, published 2003)
